In the supplement of paper PMC10201428:
± gives the standard deviation of the averaged measurements.

What follows are sequences tested on VchCAST RNA-guided transposition machinery (E. coli BL21(DE3) host, lacZ target) (assay: relative integration efficiency (T-LR orientation) vs wild-type transposon end (log2 (normalized fold change)); transposon end mutated: right end (5 bp flank + 75 bp right end); higher = more efficient transposition).
Procedure, shortened: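 Co-transformation of E. coli BL21(DE3) combined a pUC57 mini-transposon donor, holding barcoded pools of 1549 left-end or 1849 right-end variants, with a T7-driven plasmid encoding a CRISPR array, tniQ-cas8-cas7-cas6 and tnsA-tnsB-tnsC. After plating with 0.1 mM IPTG at 37°C for 18 h, input plasmids and genomic integration junctions were PCR-amplified and Illumina-sequenced across two biological output replicates, with four reference barcodes. Relative integration efficiency is the normalised, log-transformed output/input barcode fold change.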

Sequence | relative integration efficiency (log2)
ACATTTGTTGATACAACCATAAAATGATAATTACACCCATAAAGGGATAATTATCACACCCATAAATTGATATTGCCTCTGATCATAGTCAGACCAACATTGCTACGACCCGTATTCGCACCGACAC | -0.969 ± 0.58
ACATTTGTTGATACAACCATAAAAGGATCATTACCCCCATAAATTGATAATTATCCCACCCAATTTAACTATAACGCTCTGATCATAGTCAGACCAACATTGCTACGACCCGTATTCGCACCGACAC | 0.912 ± 0.11
ACATTTGTTGATCCAACCATAAAATGATAATTACACCCATAAATTCATAATTATCACACCCAATTTAACTATAACGCTCTGATCATAGTCAGACCAACATTGCTACGACCCGTATTCGCACCGACAC | 0.916 ± 0.17
ACATTTGTTGATACCACCATAAAATGATAATTCCACCCCTACATTGATAATTATCACACCCAATTTAACTATAACGCTCTGATCATAGTCAGACCAACATTGCTACGACCCGTATTCGCACCGACAC | -0.121 ± 0.44
ACATTTGTTGATACAACCATAAAATGATAATTACACCCATAAATTGATAATTATCACACCCATAAATTGATATTGCCCAACCATAAAATGATAATTATCTGATCATAGTCAGACCAAGCACCGACAC | -0.886 ± 0.6
ACATTTGTTGATACAACCATTTAATGATAATAACACCCATAAAATGATAATTATCACACCCAATTTAACTATAACGCTCTGATCATAGTCAGACCAACATTGCTACGACCCGTATTCGCACCGACAC | 2.01 ± 0.13
ACATTTGTTGATACAACCATAAAATGATAATTACACCCATAAATTGATAATTATCACACCCAGCCCGGTCGCGGTAAGAGGATCATAGTCAGACCAACATTGCTACGACCCGTATTCGCACCGACAC | 2.65 ± 0.059
ACATTTGTTGATACCACCATCAAATGATAATTACACCCATACATTGATAATTATCACACCCAATTTAACTATAACGCTCTGATCATAGTCAGACCAACATTGCTACGACCCGTATTCGCACCGACAC | -0.805 ± 0.15
ACATTTGTTGATACAACCATAAAACGATAATTACACCCATAAATGGATCATTATCACACCCAATTTAACTATAACGCTCTGATCATAGTCAGACCAACATTGCTACGACCCGTATTCGCACCGACAC | 1.06 ± 0.24
ACATTGGTTGATACAACCATAAAATGATAATTACACCCATAAATGGATAATTATCACACCCAATTTAACTATAACGCTCTGATCATAGTCAGACCAACATTGCTACGACCCGTATTCGCACCGACAC | -5.61 ± 0.44
ACATTTGTTGATACAACCATAAAATGATAAGGCCACCCATAAATTGATAAGGCTCACACCCATAAATTGATATGTACTCTGATCATAGTCAGACCAACATTGCTACGACCCGTATTCGCACCGACAC | -0.158 ± 0.46
ACATTTGTTGATACAACCATAAAATGATAATTACACCCATAAATTGATAATTATCACACCCATAAATTGATATTGCCTAGGATCATAGTCAGACCAACATTGCTACGACCCGTATTCGCACCGACAC | 0.23 ± 0.42
ACATTTGTTGATACAACCATAAAATGATAATTACACCCATAAATTGATAATTATCACACCCATAAATTGATATTGCCTCTGATCATAGTCAATGTGATAACAATCACAGAAGACCAAGCACCGACAC | -0.0829 ± 0.35
ACATTTGTTGATACAACCATAAAATGATAATTACACCCATAAATTGATAATTATCACACCCATAAATTGATATTGCCTCTGATCATAAATATATAAATTAATTATTAAATTAGTCAGGCACCGACAC | 1.54 ± 0.18
ACATTTGTTGATACAACCATAAAATGATAATTACACCCCGCCATTGATAATTATCACACCCATAAATTGATATTGCCTCTGATCATAGTCAGACCAACATTGCTACGACCCGTATTCGCACCGACAC | -2.56 ± 0.28
ACATTTGTTGATACAACCATAAAATGATAATTACACCCATAAATTGATAATTATCACACCCATAAATTGATATTGCCTCTACATGAATTCAAAGTTATGTAATATAGTACTATGTACGCACCGACAC | 0.172 ± 0.19
ACATTTGTTGATACAACCATAAAATGATACGGCACAAACGCCCGGTCGCCGGCGACACAAACGCCCGGTCGCGGTAAGAGGATCATAGTCAGACCAACATTGCTACGACCCGTATTCGCACCGACAC | 0.976 ± 0.29
ACATTTGTTGATACAACCATAAAATGATAATTACACCCATAAATTGATAATTATCACACCCATAAATTGATATTGCCTCTGATCGTTTTAAGGATGACTTCAGTCGCGCCGTACTTCGCACCGACAC | -0.209 ± 0.13
ACATTTGTTGATACAACCATAAAGTGATATTTACAACCATATATTGATATCTCTCACAACCATAAGTTGATATTTTCTCTGATCATAGTCAGACCAACATTGCTACGACCCGTATTCGCACCGACAC | 0.252 ± 0.15
ACATTTGTTGATACAACCATAAAATGATAATTACACCCATAAATCTGAAATTATCACACCCATAAATTGATATTGCCTCTGATCATAGTCAGACCAACATTGCTACGACCCGTATTCGCACCGACAC | -1.08 ± 0.29
ACATTTGTTGATACAACCATATATTGATATCTCCAACCATAAAATGATAATTATCACAACCATAAAGTGATATTTACTCTGATCATAGTCAGACCAACATTGCTACGACCCGTATTCGCACCGACAC | -0.441 ± 0.36
ACATTTGTTGATACAACCATAAAATGTAAATTACACCCATAAATTGATAATTATCACACCCATAAATTGATATTGCCTCTGATCATAGTCAGACCAACATTGCTACGACCCGTATTCGCACCGACAC | -0.454 ± 0.18
ACATTTGTTGATACAACCATAAAATGATAATTAGTGGCATAAATTGATAATTATCACACCCATAAATTGATATTGCCTCTGATCATAGTCAGACCAACATTGCTACGACCCGTATTCGCACCGACAC | -1.87 ± 0.24
ACATTTGTTGATAGAACCATATAATGATAATAACACCCATAAAATGATAATTATCACACCCAATTTAACTATAACGCTCTGATCATAGTCAGACCAACATTGCTACGACCCGTATTCGCACCGACAC | 1.28 ± 0.069
ACATTTGTTGATACAACCATAAAATGATAATTACACCCATAAATTGATCCGGCGACACAAACGCCCGGTCGCGGTAAGAGGATCATAGTCAGACCAACATTGCTACGACCCGTATTCGCACCGACAC | 2.09 ± 0.1
